These results are taken from patent US20260007767A1 (ACADEMIA SINICA, published 2026).

This test addresses T1, endogenous FLT3 on the plasma membranes of THP-1 or NOMO-1 cells (UniProt P36888 27-993, limits assumed).
T1 construct: whole, on cells
T1 sequence (looked up): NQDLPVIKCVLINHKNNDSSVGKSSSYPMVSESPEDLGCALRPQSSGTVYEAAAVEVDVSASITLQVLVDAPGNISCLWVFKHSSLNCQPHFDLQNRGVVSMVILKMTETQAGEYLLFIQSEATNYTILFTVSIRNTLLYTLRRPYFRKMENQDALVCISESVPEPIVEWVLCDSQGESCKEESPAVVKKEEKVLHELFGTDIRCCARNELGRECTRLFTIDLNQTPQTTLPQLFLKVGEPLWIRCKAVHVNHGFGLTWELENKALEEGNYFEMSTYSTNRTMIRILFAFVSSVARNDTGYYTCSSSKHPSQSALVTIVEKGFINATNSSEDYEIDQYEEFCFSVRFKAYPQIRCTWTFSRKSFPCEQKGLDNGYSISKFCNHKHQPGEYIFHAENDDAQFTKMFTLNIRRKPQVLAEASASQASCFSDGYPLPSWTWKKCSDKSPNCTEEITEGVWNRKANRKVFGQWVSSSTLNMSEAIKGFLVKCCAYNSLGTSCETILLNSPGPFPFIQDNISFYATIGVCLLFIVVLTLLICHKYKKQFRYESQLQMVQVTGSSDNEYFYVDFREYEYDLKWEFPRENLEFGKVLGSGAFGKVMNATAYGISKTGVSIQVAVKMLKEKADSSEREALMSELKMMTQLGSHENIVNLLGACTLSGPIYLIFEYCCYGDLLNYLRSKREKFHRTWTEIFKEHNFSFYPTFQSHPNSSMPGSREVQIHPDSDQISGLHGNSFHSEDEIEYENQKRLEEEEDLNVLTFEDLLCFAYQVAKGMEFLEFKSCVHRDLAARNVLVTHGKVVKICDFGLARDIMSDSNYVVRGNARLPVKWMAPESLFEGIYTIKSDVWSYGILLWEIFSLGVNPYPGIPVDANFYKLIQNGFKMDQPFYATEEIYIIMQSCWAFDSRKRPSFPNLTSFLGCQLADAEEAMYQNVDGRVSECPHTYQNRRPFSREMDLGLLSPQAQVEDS
As to the kind of experiment: interaction and colocalization in THP-1 or NOMO-1 cells (method not detailed).

B1: SCUBE1 on the cell surface of leukemia cells (THP-1, NOMO-1 and other lines) (other, human, UniProt Q8IWY4 24-988, looked up)
chain: GGSGLPGSVDVDECSEGTDDCHIDAICQNTPKSYKCLCKPGYKGEGKQCEDIDECENDYYNGGCVHECINIPGNYRCTCFDGFMLAHDGHNCLDVDECQDNNGGCQQICVNAMGSYECQCHSGFFLSDNQHTCIHRSNEGMNCMNKDHGCAHICRETPKGGVACDCRPGFDLAQNQKDCTLTCNYGNGGCQHSCEDTDTGPTCGCHQKYALHSDGRTCIETCAVNNGGCDRTCKDTATGVRCSCPVGFTLQPDGKTCKDINECLVNNGGCDHFCRNTVGSFECGCRKGYKLLTDERTCQDIDECSFERTCDHICINSPGSFQCLCHRGYILYGTTHCGDVDECSMSNGSCDQGCVNTKGSYECVCPPGRRLHWNGKDCVETGKCLSRAKTSPRAQLSCSKAGGVESCFLSCPAHTLFVPDSENSYVLSCGVPGPQGKALQKRNGTSSGLGPSCSDAPTTPIKQKARFKIRDAKCHLRPHSQARAKETARQPLLDHCHVTFVTLKCDSSKKRRRGRKSPSKEVSHITAEFEIETKMEEASDTCEADCLRKRAEQSLQAAIKTLRKSIGRQQFYVQVSGTEYEVAQRPAKALEGQGACGAGQVLQDSKCVACGPGTHFGGELGQCVSCMPGTYQDMEGQLSCTPCPSSDGLGLPGARNVSECGGQCSPGFFSADGFKPCQACPVGTYQPEPGRTGCFPCGGGLLTKHEGTTSFQDCEAKVHCSPGHHYNTTTHRCIRCPVGTYQPEFGQNHCITCPGNTSTDFDGSTNVTHCKNQHCGGELGDYTGYIESPNYPGDYPANAECVWHIAPPPKRRILIVVPEIFLPIEDECGDVLVMRKSASPTSITTYETCQTYERPIAFTSRSRKLWIQFKSNEGNSGKGFQVPYVTYDEDYQQLIEDIVRDGRLYASENHQEILKDKKLIKALFDVLAHPQNYFKYTAQESKEMFPRSFIKLLRSKVSRFLRPYK
notes: whole, on cells; Endogenous protein; in western blots it was in cell lysate; also called surface SCUBE1; membrane SCUBE1
With B1, the binding result is “binds”.
